Assay results published in patent publication US20030027981A1, “Urokinase-type plasminogen activator receptor” (priority 1989, published 2003).

Tests used:
HT-1080 cells = assay: Plasmin release from plasmin-loaded HT-1080 cells; assay type: cell-based, human; conditions: 1 mM tranexamic acid added to the serum-containing medium
Method: FIG. 24. Plasmin release from HT-1080 cells into serum-free and serum-containing media. Confluent layers of HT-1080 cells were first loaded with plasmin by incubation for 1 hour at 37° C. in serum-free MEM medium (0.5 ml) containing human plasmin (0-5 μg/ml). After rinsing the cell layers three times, they were incubated for 2 hours at 37° C. with either serum-free medium (∘ - - - ∘), medium containing 10% heat-inactivated and plasminogen-depleted fetal calf serum (● - - - ●), or the latter with tranexamic acid (100 μM) (▪ - - - ▪). Plasmin was then assayed in the cell-bound fraction (A) and the media (B). At the time of transfer to new media, there was approximately 28 ng of plasmin bound to the cells from the pretreatment with 2.5 μg of plasmin/well.
In the Examples concerning plasmin binding to cells from medium, human plasmin (approximately 18 CU/mg; Kabi Diagnostica, Stockholm, Sweden) was added to the cultures at final concentrations of 0-5 μg/ml. The cells were incubated for 3 hours at 37° C. before assay of cell-bound and supernatant plasmin (see below). For plasmin release experiments, cells were loaded for 1 hour at 37° C. with 0-5 μg/ml plasmin in serum-free medium, then rinsed three times with MEM.
Plasmin bound to the cell layer was recovered and assayed as follows. After harvest of culture medium, the cells were rinsed three times with PBS (plasmin assays of further rinses were negative); then the bound plasmin was specifically eluted (Miles, L. A., and E. F. Plow, “Binding and activation of plasminogen on the platelet surface”, J. Biol. Chem. 260: 4303-4311, 1985) with a solution of 1 mM tranexamic acid in the same rinsing solution (150 μl/well). Plasmin activity was assayed in eluate samples (50 μl) as above with an incubation time of 3 hours at 37° C. Tranexamic acid at 1 mM had no effect on the thioesterase activity of plasmin in these assays.

thrombospondin = thrombospondin (Homo sapiens, UniProt P07996); conditions: purified thrombospondin; cited from earlier work
u-PA = u-PA (Homo sapiens, UniProt P00749); assay: Inhibition of u-PA in solution by PAI's (association rate constants); assay type: biochemical
Source text: Plasminogen was purified from fresh human plasma as previously described (Danø and Reich, 1979), and was further separated into its two isoforms by elution from lysine-Sepharose with a linear gradient of 6-amino-hexanoic acid. Plasminogen isoform 2 was used in all experiments described here. u-PA (Mr 55,000) was obtained either by plasmin activation of pro-uPA (Ellis et al., 1987) or as Ukidan (Serono). Both preparations were greater than 95% high molecular weight u-PA by SDS-polyacrylamide gel electrophoresis. The concentration of active u-PA in these preparations was determined by active-site titration with p-nitrophenyl-p-guanidinobenzoate (Sigma Chem. Co.). DFP-inactivated u-PA was prepared as described in Example 1. […] The concentrations of active inhibitor in the various PAI preparations were determined by titration against u-PA immediately before use in the kinetic experiments. […] Residual u-PA activity was then measured by hydrolysis of 0.2 mM Glu-Gly-Arg-AMC (Bachem, Switzerland).
The effect of PAI's on the activity of cell-bound u-PA was determined by the addition of varying concentrations of PAI-1 (0.18-18.4 nM) or PAI-2 (1.13-56.7 nM) to the incubations at the same time as the addition of plasminogen. […]
[pln]∞ was calculated from the relationship: […]
where Δ[pln]0 is the initial rate of plasmin generation which was determined in control incubations in the absence of inhibitors. […]

thrombospondin, sequence (P07996 19-1170): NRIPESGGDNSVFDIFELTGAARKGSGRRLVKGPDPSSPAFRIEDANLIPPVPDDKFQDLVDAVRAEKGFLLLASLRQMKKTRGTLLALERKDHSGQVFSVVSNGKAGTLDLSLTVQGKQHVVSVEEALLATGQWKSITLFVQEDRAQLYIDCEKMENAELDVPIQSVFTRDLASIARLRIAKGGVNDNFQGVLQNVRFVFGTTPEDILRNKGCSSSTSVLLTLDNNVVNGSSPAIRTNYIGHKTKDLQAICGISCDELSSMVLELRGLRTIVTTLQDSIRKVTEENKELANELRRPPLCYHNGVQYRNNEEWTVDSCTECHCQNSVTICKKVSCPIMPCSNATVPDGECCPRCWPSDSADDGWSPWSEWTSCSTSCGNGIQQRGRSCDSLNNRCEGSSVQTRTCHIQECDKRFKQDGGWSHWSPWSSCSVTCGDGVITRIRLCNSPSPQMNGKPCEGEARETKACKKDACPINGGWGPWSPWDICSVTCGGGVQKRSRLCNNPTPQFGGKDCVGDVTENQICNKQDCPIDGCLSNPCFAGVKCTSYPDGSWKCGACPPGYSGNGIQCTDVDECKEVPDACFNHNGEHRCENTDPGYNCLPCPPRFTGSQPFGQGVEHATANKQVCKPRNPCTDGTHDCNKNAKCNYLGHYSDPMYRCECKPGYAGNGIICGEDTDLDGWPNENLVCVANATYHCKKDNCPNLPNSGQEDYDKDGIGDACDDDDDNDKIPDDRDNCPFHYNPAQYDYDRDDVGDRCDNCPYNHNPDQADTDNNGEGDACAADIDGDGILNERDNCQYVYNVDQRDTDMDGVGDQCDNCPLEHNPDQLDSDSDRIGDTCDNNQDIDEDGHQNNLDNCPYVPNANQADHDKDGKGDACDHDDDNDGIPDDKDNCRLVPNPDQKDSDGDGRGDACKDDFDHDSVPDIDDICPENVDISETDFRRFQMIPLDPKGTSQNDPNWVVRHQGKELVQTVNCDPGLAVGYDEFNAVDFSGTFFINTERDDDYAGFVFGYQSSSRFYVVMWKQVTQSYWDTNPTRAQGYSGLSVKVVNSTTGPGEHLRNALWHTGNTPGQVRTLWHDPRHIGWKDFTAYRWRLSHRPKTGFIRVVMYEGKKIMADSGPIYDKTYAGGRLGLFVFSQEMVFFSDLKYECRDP

In the case of NC[C@H]1CC[C@H](C(=O)O)CC1 [TA, tranexamic acid], the “Plasmin activity recovered from the cells” value (HT-1080 cells) is reported as “no plasmin activity could be recovered from the cells”.

For “Plg: native human plasminogen (glutamic acid N-terminal) purified from human plasma on lysine-Sepharose”, the Kd (thrombospondin) is given as 35 nM.

B1: PAI-2: human type-2 plasminogen activator inhibitor purified from U937 cells (protein, UniProt P05120 1-415, looked up)
Plasminogen activator …: MEDLCVANTLFALNLFKHLAKASPTQNLFLSPWSISSTMAMVYMGSRGSTEDQMAKVLQFNEVGANAVTPMTPENFTSCGFMQQIQKGSYPDAILQAQAADKIHSSFRSLSSAINASTGNYLLESVNKLFGEKSASFREEYIRLCQKYYSSEPQAVDFLECAEEARKKINSWVKTQTKGKIPNLLPEGSVDGDTRMVLVNAVYFKGKWKTPFEKKLNGLYPFRVNSAQRTPVQMMYLREKLNIGYIEDLKAQILELPYAGDVSMFLLLPDEIADVSTGLELLESEITYDKLNKWTSKDKMAEDEVEVYIPQFKLEEHYELRSILRSMGMEDAFNKGRANFSGMSERNDLFLSEVFHQAMVDVNEEGTEAAAGTGGVMTGRTGHGGPQFVADHPFLFLIMHKITNCILFFGRFSSP
For B1, the Association rate constant (u-PA; direct assay with u-PA specific fluorogenic peptide substrate) was 520000 M⁻¹ s⁻¹ and the Association rate constant (u-PA; plasminogen activation assay) was 530000 M⁻¹ s⁻¹.
